Reference: patent US10759835B2, “Monomeric streptavidin mutants, methods of using the same and processes of manufacturing proteins” (The Research Foundation for The State University of New York, priority 2016, dated 2020)
Where “and” joins values, the source holds several entries; their conditions need not be identical. Identical values can stand only once. Like-named read-outs stand apart in the source and are kept apart here.

How the values were obtained:
[1] = biotin; monomer at low pH and protein concentrations; cited from earlier work
[2] = Fluorescence polarization spectroscopy, biotin dissociation rate (koff); assay type: binding; conditions: for t1/2: dissociation half-life t1/2=0.693/koff, biotin-fluorescein; for t1/2 / Koff(×10^−3 min^−1): 37° C.; for Koff(×10^−3 min^−1): dissociation of biotin-fluorescein, excess free biotin 100 μM
Description: (§1) FIG. 4. In vitro characterization of purified mSA mutants. a) Stability of mSA-RF and mSA-RWT in PBS was measured by circular dichroism spectroscopy with or without biotin. b) Fluorescence polarization spectroscopy was used to measure the dissociation rate of biotin-fluorescein. The dissociation rate, koff, was computed by fitting normalized fluorescence polarization data, or bound fraction f, to an exponentially decaying function, i.e. ƒ=e^−k^off^*t The measurements were taken at 37° C. c) The equilibrium affinity of binding Kd between mSA-RF and biotin-fluorescein was measured by FP. d) mSA-S25H and mSA-RF were analyzed by size exclusion chromatography to estimate their molecular weights in solution. Each mutant eluted with a retention time that was consistent with monomeric streptavidin. The molecular weight standards (arrows) correspond to 66.0, 29.0, 12.4 and 6.5 kDa from left to right.
The binding of biotinylated fluorescein (bf, AnaSpec) was measured using a microplate reader (SpectraMax® i3 Microplate reader from Molecular Devices) in flat bottom 96 well plates (Sterilin Ltd). To measure Kd, 100 nM bf was first mixed with titrating amounts of mSA in PBS containing 0.1 mg/ml bovine serum albumin (BSA). After overnight incubation at room temperature, the fluorescence polarization values were measured and fit to the quadratic binding equation (Hsu and Park, 2010, J Mol Graph Model, 29, 295-308). To measure the off rate (koff), 10 nM bf was first mixed with 50 nM mSA and incubated for 2 hr to form a biotin-mSA complex. To observe dissociation of bf, excess free biotin was added to a final concentration of 100 μM and recording of fluorescence was started immediately. The intensity of polarized fluorescence was measured at various time points and normalized with respect to the value at t=0 min. The intensities were fit to an exponentially decaying function e^−k^off^*t to compute koff. The dissociation half-life t1/2=0.693/koff.
We measured the biotin dissociation rate of various mSA mutants by fluorescence polarization spectroscopy. Table 2 presents the biotin dissociation rate (koff) of various mutants measured by fluorescence polarization spectroscopy. The S25R mutation lowered koff by nearly 21 fold compared to the original mSA and 3.3 fold compared to the S25H mutant (Table 2, FIG. 4b).

[3] = Circular dichroism spectroscopy, thermal denaturation; assay type: physicochemical
Description: as §1
FIG. 8. Circular dichroism spectra of mSA-RF after low pH treatment to release bound biotin is shown in a). mSA-RF was first buffer exchanged to 100 mM glycine (pH 2.3) and then back to PBS (pH 7.5) before CD analysis. The spectra obtained at temperatures 30, 40, 50, 60, 70, and 80° C. were overlaid. The spectra at lower temperatures were colored darker than the spectra at higher temperatures, i.e. the darkest for 30° C. and the lightest for 80° C. The CD values at 235 nm (from FIG. 8a) were used to compute the unfolded fraction shown in b).
FIG. 9. To evaluate the importance of the biotin additive, mSA was induced without biotin in the medium as shown in a). The culture medium was then pH adjusted to 7.5 and poured over Ni-NTA resin, which immediately turned brown (not shown). 1. Culture medium, 2. Flow through after Ni-NTA, 3. Wash, 4. Elution. The amount of purified mSA was approximately 20% of the expressed protein. (*) mSA. Thermal denaturation of mSA-RF purified with (circle) and without (square) biotin in the medium is shown in b).
Purified mSA was diluted to 15 μM in PBS and loaded in a quartz cuvette with 1.0 mm path length. […]

[4] = Fluorescence polarization spectroscopy, equilibrium affinity Kd; conditions: biotin-fluorescein, overnight incubation at room temperature, PBS 0.1 mg/ml BSA; read-out: equilibrium binding constant Kd
Description: as §1, with “Each mutant eluted with a retention time that was consistent with monomeric streptavidin. The molecular weight standards (arrows) correspond to 66.0, 29.0, 12.4 and 6.5 kDa from left to right.” left out
The binding of biotinylated fluorescein (bf, AnaSpec) was measured using a microplate reader (SpectraMax® i3 Microplate reader from Molecular Devices) in flat bottom 96 well plates (Sterilin Ltd). […] After overnight incubation at room temperature, the fluorescence polarization values were measured and fit to the quadratic binding equation (Hsu and Park, 2010, J Mol Graph Model, 29, 295-308). […] To observe dissociation of bf, excess free biotin was added to a final concentration of 100 μM and recording of fluorescence was started immediately. The intensity of polarized fluorescence was measured at various time points and normalized with respect to the value at t=0 min. […]

[5] = tested on: HEK293 cells displaying biotinylated AP-CFP; assay: Fluorescent labeling of cell surface biotinylated receptor, confocal microscopy; assay type: cell-based; conditions: for Alexa488/GFP fluorescence of labeled cells over time: after 1 hr, 900 μM biotin in the labeling solution; for labeling of cells displaying biotinylated AP-CFP: fixed HEK293 cells, 1 μM for 30 minutes
From the text: FIG. 5. Fluorescent labeling of HEK293 cells displaying biotinylated receptor. a) HEK293 cells displaying biotinylated AP-CFP were labeled with Alexa488-conjugated mSA-RWT and imaged by fluorescence microscopy. Fluorescence was filtered for (i) CFP and (ii) Alexa488 and the same field of vision was imaged multiple times at regular intervals to measure the stability of labeling. iii. DIC. mSA-RWT binds only CFP positive cells, indicating high specificity of interaction. b-c) HEK293 displaying unrelated protein fused to CFP b) or untransfected HEK293 c) were treated with purified BirA and then labeled with fluorescent mSA-RWT as in part (a) (i)-(iii) the same as before. d) The captured fluorescence images of mSA-RWT—Alexa488 labeled cells (in jpg format) were loaded into MatLab and the amount of CFP and Alexa488 fluorescence was quantified by summing over pixel values. The fluorescence intensity was normalized with respect to the value at t=0. e) Cells labeled with mSA-RF—EGFP were similarly imaged and analyzed to determine the time dependent loss of mSA labeling.
Adherent HEK293 cells were seeded in a 24 well plate (Becton Dickinson) and grown in DMEM supplemented with 10% FBS and antibiotic/antimycotic (Invitrogen). At 50% confluency, the cells were transfected with a plasmid containing pDisplay-AP-CFP-TM. After 2 days the wells were supplemented with 100 nM purified BirA, 5 mM ATP, and 0.3 mM biotin and the biotinylation reaction was carried out overnight. The following morning, the cells were detached from the wells using EDTA Solution (Versene from Life Technologies), washed with PBS containing 0.1% w/v BSA (PBSF), and fixed in 4% paraformaldehyde solution. Prior to microscopy, cells were labeled with 1 μM mSA-RWT—Alexa488 or 1 μM mSA-RF—EGFP in PBSF for 30 minutes. Excess protein was washed away and cells were switched to PBSF with 0.9 mM biotin. Each sample was mounted on slides and imaged using confocal microscopy. The same field of view was imaged every 10 min for 60 min to quantify fluorescence loss as a function of time. The captured images were analyzed with microscope software (ZEN from Zeiss, and MatLab® from MathWorks).
We tested the use of mSA-RWT or mSA-RF in cell imaging, in which biotinylated proteins on the cell surface were labeled with Alexa488 conjugated mSA-RWT or mSA-RF fused to EGFP, and imaged by fluorescence confocal microscopy. Cell imaging is an important test of whether engineered mutants can specifically interact with biotinylated ligands in a heterogeneous environment, in which other potentially competing interactions can interfere with desired detection. […]
To evaluate the stability of labeling, we imaged the labeled cells repeatedly over 1 hr and quantified the fluorescence intensity of Alexa488 or GFP at regular intervals. […]

[6] = currently available mSA, Lim et al.; cited from earlier work

Row | Molecule | Kd [1] [nM] | t1/2 [2] | Koff(×10^−3 min^−1) [2] | denaturation temperature ([3]; after low pH treatment (100 mM glycine pH 2.3) and exchange back to PBS pH 7.5) [°C] | thermal unfolding behaviour ([3]; protein purified with biotin in the medium) | thermal unfolding behaviour ([3]; protein purified without biotin in the medium) | Kd [4] [nM] | Alexa488/GFP fluorescence of labeled cells over time [5] | labeling of cells displaying biotinylated AP-CFP [5] | biotin dissociation koff [6] [s⁻¹] | dissociation t1/2 [6] [min] | off rate / dissociation half-life compared with another mutant ([2]; result in words)
1 | Brad2: bradavidin 2, streptavidin homolog, SEQ ID NO: 21 (protein, listed as Bradyrhizobium japonicum) QGLPAPSYWKNERGSELLIWSANSGTIQGTFTNHAQGFACQGIPYPAAGSVSPTGLYFVVTFAQCNSFTRWVGTIKGSQMPTSWTLFYVDNKGKPSRLKGGDIFTRVW | < 0.1 | – | – | – | – | – | – | – | – | – | – | –
2 | mSA-RF: monomeric streptavidin mutant SEQ ID NO: 3, S25R and T48F (protein, Modified streptavidin) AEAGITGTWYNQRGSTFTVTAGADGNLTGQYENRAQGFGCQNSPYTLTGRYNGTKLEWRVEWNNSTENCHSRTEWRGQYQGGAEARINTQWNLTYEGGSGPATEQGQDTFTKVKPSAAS | – | 402 min and 402 ± 18 min | 1.73 ± 0.79 ×10^−3 min^−1 | 60 | clear two state unfolding transition | does not show such transition | 1.3 | remained high | Only CFP positive cells were labeled selectively | – | – | –
3 | mSA: engineered monomeric streptavidin, reference sequence SEQ ID NO: 1 (Lim et al. 2013) (protein, monomeric streptavidin) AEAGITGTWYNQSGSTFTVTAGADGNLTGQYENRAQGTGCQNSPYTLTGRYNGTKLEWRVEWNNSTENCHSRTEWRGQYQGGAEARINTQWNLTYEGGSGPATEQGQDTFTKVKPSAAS | – | 11 min | 63 ×10^−3 min^−1 | – | – | – | – | – | – | 0.00105 | 11 | –
4 | mSA-RWT: monomeric streptavidin mutant SEQ ID NO: 4, S25R, T48W, E124T (protein, Modified streptavidin) AEAGITGTWYNQRGSTFTVTAGADGNLTGQYENRAQGWGCQNSPYTLTGRYNGTKLEWRVEWNNSTENCHSRTEWRGQYQGGAEARINTQWNLTYEGGSGPATTQGQDTFTKVKPSAAS | – | 329 ± 21 min | 2.11 ± 0.13 ×10^−3 min^−1 | – | – | – | – | remained high | Only CFP positive cells were labeled selectively | – | – | longer than mSA-S25R
